# Numbering of substitutions follows the chain as printed. Where two headings read alike, the source gives them in different places.
# T1: human IL-11 (human, UniProt P20809 22-199)
# T1 construct: In the ELISAs this is recombinant human IL-11 coated on the plate (expressed in CHO cells as Fc-tagged and tag-free versions); In the fibroblast assays it is the IL-11 produced by human fibroblasts after TGFβ1 stimulation; also called recombinant human IL-11 (GenScript Cat. No. Z03108-1); interleukin 11
# T1 sequence (looked up): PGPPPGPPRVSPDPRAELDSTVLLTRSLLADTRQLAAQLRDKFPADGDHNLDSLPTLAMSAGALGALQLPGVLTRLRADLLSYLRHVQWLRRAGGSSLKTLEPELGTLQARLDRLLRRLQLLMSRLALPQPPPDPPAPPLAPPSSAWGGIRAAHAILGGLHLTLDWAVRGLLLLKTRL
# T2: FLAG-tagged human IL-11 expressed at the cell surface (human, UniProt P20809 22-199)
# T2 construct: whole, on cells; also called IL-11 expressing HEK cells; target cells expressing human IL-11 at their surface; not shown: how the protein is held at
# T2 sequence (looked up): T1 sequence (looked up)
# B1: Yu33-H3 (IgG) (antibody, V domains shown)
# VH: EVQLVESGGGFVKPGGSLSISCAASGFTFSGAYMNWVRQAPGKGLEWVAVISYDGSNKYYADSVKGRFTISRDNSKNTLYLQMNSLRAEDTAVYYCARDLYAFDIWGQGTMVTVSS
# VL: LPVLTQPHSVSESPGRTVTISCTRNTGNIASNRVQWYQQRPASAPTVVIYDNHQRPSGVPDRFSGSIDTSPNSAYLTISGLKTEDEADYYCQSYDYSSVIFGGGTQLTVL
# notes: also called YU33-B3/H3; #2
# B2: YU100-H01 (scFv)
# scFv: QVQLVQSGGGVVQPGRSLRLSCAASGFTFSSYAMHWVRQAPGKGLEWVAVISYDGSNKYYADSVKGRFTISRDNSKNTLYLQMNSLRAEDTAVYYCARIMGYDYGDYDVVDYWGQGTLVTVSSGSASAPKLEEGEFSEARVQSALTQPRSVSGSPGQSVTISCTGTSSDVGAYNYVSWYQQHPGKAPKLMIYDVSERPSGVPDRFSGSKSGNTASLTISGLQAEDEADYYCCSYAGSYTWVFGGGTKLTVL
# notes: light chain-shuffled human anti-IL-11 clone
# B3: BSN-2E1 (antibody, V domains shown)
# VH: QVQLQESGPELVKPGASVKIPCKASGYTFTDYNMDWVKQSHGKSLEWIGDINPHNGGPIYNQKFTGKATLTVDKSSSTAYMELRSLTSEDTAVYYCARGELGHWYFDVWGTGTTVTVSS
# VL: NIVMTQSPKSMSMSVGERVTLTCKASENVVTYVSWYQQKPEQSPKLLIYGASNRYTGVPDRFTGSGSATDFTLTISSVQAEDLADYHCGQGYSYPYTFGGGTKLEIK
# notes: mouse monoclonal anti-human IL-11 antibody from a hybridoma; also called A3
# B4: BSN-3C6 (antibody, V domains shown)
# VH: B3 VH with Q1E, E6Q
# VL: DIVLTQSPASLAVSLGQRATISCRASKSVSTSGYSYIHWYQQKPGQPPKLLIYLASNLDSGVPARFSGSGSGTDFTLNIHPVEEEDAATYYCQHSRDLPPTFGGGTKLEIK
# B5: BSN-8H11 (antibody, V domains shown)
# VH: B3 VH with Q1E, E6Q, M34I, H54N, N55Y, P58T, I59L, T65K
# VL: B4 VL with G33D, I37M, Q46H, D59E, Y91F
# B6: YU100-F11 (scFv)
# scFv: QVQLVESGGGVVQPGRSLRLSCAASGFTFSSYGMHWVRQAPGKGLEWVAVISYDGSNKYYADSVKGRFTISRDNSKNTLYLQMNSLRAEDTAVYYCAKIGATDPLDYWGQGTLVTVSSGSASAPKLEEGEFSEARVQSALTQPASVSGSPGQSITISCTGSSSDVAGYNYVSWYQQHPGKAPKLMIYDVTKRPSGVPDRFSGSKSGNTASLTISGLQAEDEADYYCCSYAGSYTWVFGGGTQLTVL
# notes: as for B2
# B7: BSN-7D4 (antibody, V domains shown)
# VH: EVQLQQSGPELVKPGASVKISCKASGYTFTDYNMDWVKQSQGKRLEWIGDINPNYGGTIYNQKFKGKATLTVDKSSSTAYMELRSLTSEDTTVYYCTRGELGHWYFDVWGTGTTVTVSS
# VL: B4 VL with A9P, A12T, T31A, I37M, A55T, D59E, R96W
# B8: Yu45-G8 (Fc fusion, not shown: a dimerising Fc or GST; small tags and cut ends)
# VH: EVQLVESGGGVVQPGRSLRLSCAASGFTFSSYGMHWVRQAPGKGLEWVAVISYDGSNKYYADSVKGRFTISRDNSKNTLYLQMNSLRAEDTAVYYCAKFARGVYLFDYWGQGTLVTVSS
# VL: QSALTQPASVSGSPGQSITISCTGTSSDVGGYDYVSWYQQHPGTAPKLMISDVHNRPLGVSNRFSGSKSGNTASLTISGLQAEDEADYYCSSYTSSITWVFGGGTKLTVL
# notes: also called YU45-G8/H6; #19
# B9: YU33-B4/YU45-G2/A3 (Fc fusion)
# VH: EVQLVESGGGVVQPGRSLRLSCAASGFTFSSYGMHWVRQAPGKGLEWVAVISYDGSNKYYADSVKGRFTISRDNSKNTLYLQMNSLRAEDTAVYYCAKIGATDPLDYWGQGTLVTVSS
# VL: B8 VL with D33N, T44K, S51Y, H54S, L58S, S78F, I97S, T98S
# notes: tested as scFv-Fc (human IgG1)
# B10: YU45-F2 (Fc fusion)
# VH: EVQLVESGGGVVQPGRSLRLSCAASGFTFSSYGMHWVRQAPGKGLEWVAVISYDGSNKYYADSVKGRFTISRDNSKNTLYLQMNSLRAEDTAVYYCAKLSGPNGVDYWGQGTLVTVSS
# VL: QPVLTQPRSVSGSPGQSVTISCTGTSSDVGGYNYVSWYQQHPGKAPKVMIYDVSKRPSGVPDRFSGSKSGNTASLTISGLQAEDEADYYCCSYAGSYTWVFGGGTKLTVL
# notes: tested as scFv-Fc (human IgG1); also called #24
# B11: BSN-2G6 (antibody, V domains shown)
# VH: QVQLQESGPELVKPGASVKIPCKASGYTFTDYNMDWVKQSHGKSLEWIGNINPDNGGTIYNQKFKGKATLTVDKSSSTAYMELRSLTSEDTAVYFCAREGPYGYTWFAYWGQGTLDTVSA
# VL: DILLTQSPAILSVSPGERVSFSCRASQSIGTSIHWYQQRTNGSPRLLIKYASESISGIPSRFSGSGSGTDFTLSINSVESEDIADYYCQQSNSWPLTFGAGTKLELK
# notes: mouse monoclonal anti-human IL-11 antibody from a hybridoma; also called A5
# B12: Yu33-A2 (IgG) (antibody, V domains shown)
# VH: QLQQSGPGLVKPSQTLSLTCAISGDSVSSNSAAWNWIRQSPSRGLEWLGRTYYRSKWYNDYAVSVKSRITINPDTSKNQFTLQLNSVTPDDTAVYYCARGTRGYFDYWGQGTLVTVSS
# VL: DVVMTQSPSSLSASVGDRVTITCRASQDVGRYVAWYQQKVGKVPRLLIYAASALQSGVPSRFSGTASETSFTLTISSLQPEDVASYYCQQYRSAPLAFGGGTGVEIK
# notes: also called #1
# B13: YU100-G08 (scFv)
# scFv: QVQLVQSGGGVVQPGRSLRLSCAASGFTFSSYGMHWVRQAPGKGLEWVAVISYDGSNKYYADSVKGRFTISRDNSKNTLYLQMNSLRAEDTAVYYCAKIGATDPLDYWGQGTLVTVSSGSASAPKLEEGEFSEARVQSALTQPRSVSGSPGQSVTLSCTGTSSDVGGYNYVSWYQHYPGKAPKLMIFDVNERSSGVPDRFSGSKSGNTASLTISGLQAEDEADYYCCSYAGRYTWMFGGGTKVTVL
# notes: as for B2
# B14: BSN-1H2 (antibody, V domains shown)
# VH: QAQLQQSGAELARPGASVKLSCKASGYTFTSYGITWVKQRTGQGLEWIGDIYPRSGNIYYNENFKGEATLTADKSSSTAYMQLSRLTSEDSAVYFCARSGWEGWFAYWGQGTLVTVSV
# VL: DIVMTQSHKFMSTSVGDRVNITCKASQDVGSAVVWYQQKPGQSPKVLIYWASTRHTGVPDRFTGSGSGTDFTLTISNVQSEDLADYFCQQYSSYRTFGGGTKLEIK
# B15: BSN-5B8 (antibody, V domains shown)
# VH: QVQLQQSGAELARPGTSVKLSCKASGYTFTSYGISWVKQRTGQGLEWIGEIYPRSSNTYYNEKFKGKATLTADKSSSTAYMELRSLTSEDSADYFCARANWVGYFDVWGTGTTVTVSS
# VL: B14 VL with N20T, S31T, V34A, V46L, H55L, D70Y, S76N
# notes: mouse monoclonal anti-human IL-11 antibody from a hybridoma; also called A9
# Assays:
# human IL-11 [1] = biological target: T1, human IL-11; test: indirect ELISA on plate-coated recombinant human IL-11 (1 µg/mL), detection with HRP anti-human IgG (Fc-specific), absorbance 450-570 nm
# human IL-11 [2] = biological target: T1, human IL-11; test: cell-based or functional assay
# human IL-11 [3] = biological target: T1, human IL-11; test: ELISA binding signal
# human IL-11 [4] = biological target: T1, human IL-11; test: ELISA on coated recombinant human IL-11, scFv-Fc dilution series
# [5] = biological target: T2, FLAG-tagged human IL-11 expressed at …; test: flow cytometry of hybridoma subclone supernatants on cells transfected with pB1-IL11-hum.FL (FLAG-tagged human IL-11 at the cell surface), anti-mouse IgG detection; sheet says 'flow cytometry (Attunes)', legend says iQue
# human IL-11 [6] = biological target: T1, human IL-11; test: EC50 from the indirect ELISA titrations of FIGS. 28A-28F on plate-coated recombinant human IL-11 (five-parameter fit), ng/ml is the concentration unit of FIG. 28 and paragraph 502
# human IL-11 [7] = biological target: T1, human IL-11; test: indirect ELISA on plate-coated recombinant human IL-11 (1 µg/mL), detection with HRP anti-human IgG (Fc-specific), absorbance 450-570 nm; remark: listed apart in the source
# human IL-11 [8] = biological target: T1, human IL-11; test: EC50 by indirect ELISA on plate-coated recombinant human IL-11 (five-parameter fit); no titration curve of Yu33-B4 is drawn in FIGS. 28A-28F, ng/ml is the concentration unit of FIG. 28 and paragraph 502
# human IL-11 [9] = biological target: T1, human IL-11; test: indirect ELISA on plate-coated recombinant human IL-11 (1 µg/mL), detection with HRP anti-human IgG (Fc-specific), absorbance 450-570 nm; remark: listed apart in the source
binder,measurement,setting,value
B1,binding result,human IL-11 [1],binds
B2,"MMP2 production (ng/ml), TGFB1-stimulated human atrial fibroblasts, Experiment 1 (NEG 42.7, POS 70.2)",human IL-11 [2],48.3 ng/mL
same,"MMP2 production (ng/ml), TGFB1-stimulated human atrial fibroblasts, Experiment 2 (NEG 36.2, POS 62.3)",human IL-11 [2],42.2 ng/mL
same,hIL11 - average signal,human IL-11 [3],0.43
same,EC50,human IL-11 [4],0.053 µg/mL
B3,% positive (anti-FLAG positive control = 100%),[5],164%
B4,% positive (anti-FLAG positive control = 100%),[5],176%
B5,% positive (anti-FLAG positive control = 100%),[5],190%
B6,"MMP2 production (ng/ml), TGFB1-stimulated human atrial fibroblasts, Experiment 1 (NEG 42.7, POS 70.2)",human IL-11 [2],44.5 ng/mL
same,"MMP2 production (ng/ml), TGFB1-stimulated human atrial fibroblasts, Experiment 2 (NEG 36.2, POS 62.3)",human IL-11 [2],37.6 ng/mL
same,hIL11 - average signal,human IL-11 [3],0.319
same,EC50,human IL-11 [4],0.027 µg/mL
B7,% positive (anti-FLAG positive control = 100%),[5],176%
B8,EC50,human IL-11 [6],0.00629 µg/mL
same,EC50 (read off the curve),human IL-11 [7],~0.006 µg/mL
B9,EC50,human IL-11 [8],0.198 µg/mL
same,EC50,human IL-11 [6],0.0142 µg/mL
B10,EC50,human IL-11 [6],0.00424 µg/mL
same,EC50 (read off the curve),human IL-11 [7],~0.004 µg/mL
B11,% positive (anti-FLAG positive control = 100%),[5],23%
B12,binding result,human IL-11 [9],no binding (tested: 800 ng/ml)
B13,"MMP2 production (ng/ml), TGFB1-stimulated human atrial fibroblasts, Experiment 1 (NEG 42.7, POS 70.2)",human IL-11 [2],42.3 ng/mL
same,"MMP2 production (ng/ml), TGFB1-stimulated human atrial fibroblasts, Experiment 2 (NEG 36.2, POS 62.3)",human IL-11 [2],38 ng/mL
same,hIL11 - average signal,human IL-11 [3],0.153
same,EC50,human IL-11 [4],0.028 µg/mL
B14,% positive (anti-FLAG positive control = 100%),[5],157%
B15,% positive (anti-FLAG positive control = 100%),[5],188%
